Measured values: patent US12060424 (AMUNIX PHARMACEUTICALS, dated 2024)

Key:
[1] = biological target: T1, human EpCAM expressed on cells (CHO cells stably transfected with human EpCAM); EpCAM-positive human tumor … (human, UniProt P16422 24-314); assay: competition flow cytometry on hEp-CHO 4-12B cells
T1 construct: whole, on cells; also called EpCAM-CHO; hEp-CHO 4-12B
T1 sequence (looked up): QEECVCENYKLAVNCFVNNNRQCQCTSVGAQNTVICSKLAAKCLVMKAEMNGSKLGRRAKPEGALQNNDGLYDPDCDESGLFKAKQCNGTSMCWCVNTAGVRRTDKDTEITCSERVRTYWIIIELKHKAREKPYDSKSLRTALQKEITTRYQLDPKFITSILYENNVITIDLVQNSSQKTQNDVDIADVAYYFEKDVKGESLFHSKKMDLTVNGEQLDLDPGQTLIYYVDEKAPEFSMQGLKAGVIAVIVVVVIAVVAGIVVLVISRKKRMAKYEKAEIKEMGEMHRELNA

[2] = biological target: T2, human CD3 on cells (CD3+ Jurkat cells; purified human CD3 positive T cells) (human, UniProt P07766 23-207); assay: competition flow cytometry on Jurkat cells
T2 construct: whole, on cells; CD3 is a multi-subunit complex

[3] = biological target: T3, recombinant human CEA (Abcam cat #ab742), coated on ELISA plate (human, UniProt P06731 35-685, limits assumed); assay: sandwich ELISA: recombinant human CEA coated, biotin-conjugated protein L detection
T3 construct: also called CEA antigen
T3 sequence (looked up): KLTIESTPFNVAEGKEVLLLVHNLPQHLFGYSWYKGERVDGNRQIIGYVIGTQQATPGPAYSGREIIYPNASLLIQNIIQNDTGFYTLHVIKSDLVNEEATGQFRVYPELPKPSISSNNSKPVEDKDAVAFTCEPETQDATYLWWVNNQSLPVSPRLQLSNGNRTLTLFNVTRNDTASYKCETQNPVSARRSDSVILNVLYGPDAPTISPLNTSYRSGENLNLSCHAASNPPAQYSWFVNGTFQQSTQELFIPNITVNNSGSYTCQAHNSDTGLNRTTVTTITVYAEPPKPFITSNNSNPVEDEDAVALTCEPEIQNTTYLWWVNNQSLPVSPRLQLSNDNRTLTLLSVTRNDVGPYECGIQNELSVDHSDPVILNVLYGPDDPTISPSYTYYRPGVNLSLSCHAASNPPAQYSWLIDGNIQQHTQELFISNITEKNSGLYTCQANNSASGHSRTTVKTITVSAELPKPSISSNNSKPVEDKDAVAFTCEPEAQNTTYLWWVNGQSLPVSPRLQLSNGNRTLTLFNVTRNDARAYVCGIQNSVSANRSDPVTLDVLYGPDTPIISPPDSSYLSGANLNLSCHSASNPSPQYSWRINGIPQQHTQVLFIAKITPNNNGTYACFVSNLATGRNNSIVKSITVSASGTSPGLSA

[4] = biological target: T4, recombinant human HER2 (AcroBiosystems cat #HE2-H525), coated on ELISA plate (human, UniProt P04626 23-652); assay: sandwich ELISA: recombinant human HER2 coated, biotin-conjugated protein L detection
T4 construct: also called HER2 antigen

[5] = biological target: recombinant human CD3 epsilon & delta (rhCD3ε & δ), Creative BioMart cat #CD3E&CD3D-219H (human) (UniProt P07766); assay: sandwich ELISA: rhCD3ε & δ coated, peroxidase-conjugated protein L detection
[6] = biological target: T5, Fc-tagged EpCAM (R&D Systems, cat #960-EP-050), human, coupled to SPR chip (human, UniProt P16422 24-265); assay: SPR (Biacore 3000), Fc-tagged EpCAM coupled to chip, ProTIA as analyte at 5-6 concentrations
T5 construct: Bought reagent; also called human EpCAM; EpCAM chip; not shown: Fc tag of the bought reagent
T5 sequence (looked up): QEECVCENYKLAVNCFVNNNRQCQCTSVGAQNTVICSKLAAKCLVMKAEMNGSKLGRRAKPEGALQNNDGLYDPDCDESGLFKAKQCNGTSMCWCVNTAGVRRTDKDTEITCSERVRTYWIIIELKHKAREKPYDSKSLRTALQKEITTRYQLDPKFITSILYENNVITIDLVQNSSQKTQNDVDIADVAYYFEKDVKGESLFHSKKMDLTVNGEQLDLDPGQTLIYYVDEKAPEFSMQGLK

[7] = biological target: T2, human CD3 on cells (CD3+ Jurkat cells; …); assay: competition flow cytometry on CD3+ Jurkat cells
[8] = biological target: recombinant human CD3 epsilon & delta (rhCD3ε & δ), Creative BioMart cat #CD3E&CD3D-219H (human) (UniProt P07766); assay: SPR
[9] = biological target: T5, Fc-tagged EpCAM (R&D Systems, cat …); assay: SPR
[10] = biological target: T6, recombinant human EpCAM (rhEpCAM), coated on ELISA plate (human, UniProt P16422 24-265); assay: sandwich ELISA: rhEpCAM coated, biotin-conjugated protein L detection
T6 construct: Bought reagent
T6 sequence (looked up): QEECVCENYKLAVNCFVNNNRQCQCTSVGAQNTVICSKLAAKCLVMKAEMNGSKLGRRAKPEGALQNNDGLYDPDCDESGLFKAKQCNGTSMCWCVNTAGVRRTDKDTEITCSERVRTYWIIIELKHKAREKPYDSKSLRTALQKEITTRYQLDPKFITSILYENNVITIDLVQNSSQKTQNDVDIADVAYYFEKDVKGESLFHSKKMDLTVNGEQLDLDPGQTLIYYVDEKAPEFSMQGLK

[11] = biological target: recombinant human CD3 epsilon & delta (rhCD3ε & δ), Creative BioMart cat #CD3E&CD3D-219H (human) (UniProt P07766); assay: SPR (Biacore 3000), His-tagged CD3εδ coupled to chip, ProTIA as analyte at 5-6 concentrations
[12] = biological target: T2, human CD3 on cells (CD3+ Jurkat cells; …); assay: cell-based or functional assay
[13] = biological target: T6, recombinant human EpCAM (rhEpCAM), …; assay: sandwich ELISA: rhEpCAM coated, peroxidase-conjugated protein L detection
[14] = biological target: T1, human EpCAM expressed on cells (CHO …); assay: competition flow cytometry on EpCAM-CHO cells

recombinant human CD3 epsilon & delta (rhCD3ε & δ), Creative BioMart cat #CD3E&CD3D-219H (human), sequence (P07766 23-126, stated change not applied, chain 1 of 2): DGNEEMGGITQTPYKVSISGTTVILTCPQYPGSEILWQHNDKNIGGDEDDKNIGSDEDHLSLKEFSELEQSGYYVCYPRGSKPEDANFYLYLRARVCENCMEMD
recombinant human CD3 epsilon & delta (rhCD3ε & δ), Creative BioMart cat #CD3E&CD3D-219H (human), sequence (P04234 22-105, stated change not applied, chain 2 of 2, further chain): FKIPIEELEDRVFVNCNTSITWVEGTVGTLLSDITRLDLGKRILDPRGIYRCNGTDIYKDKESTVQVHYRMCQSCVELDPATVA
T2 sequence (P07766 23-207): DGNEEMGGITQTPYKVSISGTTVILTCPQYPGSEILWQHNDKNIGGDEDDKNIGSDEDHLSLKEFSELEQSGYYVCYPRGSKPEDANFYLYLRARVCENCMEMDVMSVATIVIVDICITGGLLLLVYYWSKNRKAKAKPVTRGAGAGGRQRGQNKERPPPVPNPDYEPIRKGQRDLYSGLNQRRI

B1: AC1886 anti-EpCAM×anti-CD3 ProTIA with two XTEN (XTEN292-RSR3058-anti-EpCAM-anti-CD3 tandem scFv-RSR3058-XTEN_867-6xHIS) (bispecific antibody)
chain: SPAGSPTSTEEGTSESATPESGPGTSTEPSEGSAPGTSESATPESGPGSEPATSGSETPGTSESATPESGPGSEPATSGSETPGTSESATPESGPGTSTEPSEGSAPGSPAGSPTSTEEGTSESATPESGPGSEPATSGSETPGTSESATPESGPGSPAGSPTSTEEGSPAGSPTSTEEGTSTEPSEGSAPGTSESATPESGPGTSESATPESGPGTSESATPESGPGSEPATSGSETPGSEPATSGSETPGSPAGSPTSTEEGTSTEPSEGSAPGTSTEPSEGSAPGGSAPTTGEAGEAAGATSAGATGPATSGSETPGTDIQMTQSPSSLSASVGDRVTITCRSTKSLLHSNGITYLYWYQQKPGKAPKLLIYQMSNLASGVPSRFSSSGSGTDFTLTISSLQPEDFATYYCAQNLEIPRTFGQGTKVEIKGATPPETGAETESPGETTGGSAESEPPGEGQVQLVQSGPGLVQPGGSVRISCAASGYTFTNYGMNWVKQAPGKGLEWMGWINTYTGESTYADSFKGRFTFSLDTSASAAYLQINSLRAEDTAVYYCARFAIKGDYWGQGTLLTVSSGGGGSDIQMTQSPSSLSASVGDRVTITCRASQDIRNYLNWYQQKPGKAPKLLIYYTSRLESGVPSRFSGSGSGTDYTLTISSLQPEDFATYYCQQGNTLPWTFGQGTKVEIKGATPPETGAETESPGETTGGSAESEPPGEGEVQLVESGGGLVQPGGSLRLSCAASGYSFTGYTMNWVRQAPGKGLEWVALINPYKGVSTYNQKFKDRFTISVDKSKNTAYLQMNSLRAEDTAVYYCARSGYYGDSDWYFDVWGQGTLVTVSSGTAEAASASGTTGEAGEAAGATSAGATGPSPGSPAGSPTSTEEGTSESATPESGPGTSTEPSEGSAPGSPAGSPTSTEEGTSTEPSEGSAPGTSTEPSEGSAPGTSESATPESGPGSEPATSGSETPGSEPATSGSETPGSPAGSPTSTEEGTSESATPESGPGTSTEPSEGSAPGTSTEPSEGSAPGSPAGSPTSTEEGTSTEPSEGSAPGTSTEPSEGSAPGTSESATPESGPGTSTEPSEGSAPGTSESATPESGPGSEPATSGSETPGTSTEPSEGSAPGTSTEPSEGSAPGTSESATPESGPGTSESATPESGPGSPAGSPTSTEEGTSESATPESGPGSEPATSGSETPGTSESATPESGPGTSTEPSEGSAPGTSTEPSEGSAPGTSTEPSEGSAPGTSTEPSEGSAPGTSTEPSEGSAPGTSTEPSEGSAPGSPAGSPTSTEEGTSTEPSEGSAPGTSESATPESGPGSEPATSGSETPGTSESATPESGPGSEPATSGSETPGTSESATPESGPGTSTEPSEGSAPGTSESATPESGPGSPAGSPTSTEEGSPAGSPTSTEEGSPAGSPTSTEEGTSESATPESGPGTSTEPSEGSAPGTSESATPESGPGSEPATSGSETPGTSESATPESGPGSEPATSGSETPGTSESATPESGPGTSTEPSEGSAPGSPAGSPTSTEEGTSESATPESGPGSEPATSGSETPGTSESATPESGPGSPAGSPTSTEEGSPAGSPTSTEEGTSTEPSEGSAPGTSESATPESGPGTSESATPESGPGTSESATPESGPGSEPATSGSETPGSEPATSGSETPGSPAGSPTSTEEGTSTEPSEGSAPGTSTEPSEGSAPGSEPATSGSETPGTSESATPESGPGTSTEPSEGSAPGHHHHHH
notes: Uncleavable release segments RSR-3058; anti-EpCAM 4D5MOCB; hCD3.3
fold weaker binding affinity than cleaved AC1695 [1]: ~100 fold | fold weaker binding affinity than cleaved AC1695 [2]: ~30 fold

B2: protease-treated (MMP-9 cleaved) AC1476 anti-EpCAM×anti-CD3 ProTIA (bispecific antibody)
chain: DIQMTQSPSSLSASVGDRVTITCRSTKSLLHSNGITYLYWYQQKPGKAPKLLIYQMSNLASGVPSRFSSSGSGTDFTLTISSLQPEDFATYYCAQNLEIPRTFGQGTKVEIKGATPPETGAETESPGETTGGSAESEPPGEGQVQLVQSGPGLVQPGGSVRISCAASGYTFTNYGMNWVKQAPGKGLEWMGWINTYTGESTYADSFKGRFTFSLDTSASAAYLQINSLRAEDTAVYYCARFAIKGDYWGQGTLLTVSSGGGGSDIQMTQSPSSLSASVGDRVTITCRASQDIRNYLNWYQQKPGKAPKLLIYYTSRLESGVPSRFSGSGSGTDYTLTISSLQPEDFATYYCQQGNTLPWTFGQGTKVEIKGATPPETGAETESPGETTGGSAESEPPGEGEVQLVESGGGLVQPGGSLRLSCAASGYSFTGYTMNWVRQAPGKGLEWVALINPYKGVSTYNQKFKDRFTISVDKSKNTAYLQMNSLRAEDTAVYYCARSGYYGDSDWYFDVWGQGTLVTVSSGTAEAASASGLSGRSDNHSPLG
notes: mass 58,071 Da); also called MMP-9 treated AC1476; MMP-9 treated AC1516
binding result [3]: no binding | binding result [4]: no binding | EC50 [5]: 0.31 nM | Kd [6]: 1.15 nM | fold stronger binding affinity than untreated and non-cleavable ProTIA [7]: ~30 fold | fold stronger binding affinity than untreated and non-cleavable ProTIA [8]: 10 fold | fold stronger binding affinity than untreated and non-cleavable ProTIA [9]: ~10 fold | EC50 [10]: 0.11 nM | Kd [11]: 2.22 nM | EC50, LDH release cytotoxicity, purified human CD3 positive T cells with OVCAR-3 cells 5:1 [12]: 0.0003 nM | EC50, LDH release cytotoxicity, purified human CD3 positive T cells with SK-OV-3 cells 5:1 [12]: 0.0024 nM | EC50 [13]: 0.12 nM | fold stronger binding affinity than untreated and non-cleavable ProTIA [14]: ~10 fold
